The record followed here is publication PMC9405932.

In this assay the target is BCAS1-SV1 (novel splice variant of BCAS1), full length, Gal4 fusion for yeast two-hybrid (human).
BCAS1-SV1 (novel splice variant of BCAS1), full length, Gal4 fusion for yeast two-hybrid (human), sequence (O75363 whole entry, change not shown, the tested form may be a part, canonical isoform): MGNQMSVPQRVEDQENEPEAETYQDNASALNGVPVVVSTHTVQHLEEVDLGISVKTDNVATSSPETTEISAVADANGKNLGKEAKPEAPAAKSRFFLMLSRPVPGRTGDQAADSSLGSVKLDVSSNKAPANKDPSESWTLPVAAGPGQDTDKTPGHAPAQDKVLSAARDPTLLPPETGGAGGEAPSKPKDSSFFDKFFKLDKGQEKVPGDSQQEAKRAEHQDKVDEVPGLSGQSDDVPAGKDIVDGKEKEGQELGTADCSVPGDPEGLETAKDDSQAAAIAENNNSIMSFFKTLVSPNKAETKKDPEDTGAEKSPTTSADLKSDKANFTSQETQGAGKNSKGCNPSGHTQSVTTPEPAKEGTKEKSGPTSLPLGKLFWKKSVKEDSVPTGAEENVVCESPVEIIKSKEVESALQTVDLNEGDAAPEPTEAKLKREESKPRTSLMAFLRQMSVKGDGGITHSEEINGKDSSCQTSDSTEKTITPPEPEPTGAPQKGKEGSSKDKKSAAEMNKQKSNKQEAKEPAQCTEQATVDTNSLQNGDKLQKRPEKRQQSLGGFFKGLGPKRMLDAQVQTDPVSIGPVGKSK

For “β-arrestin 2 (ARRB2), full length, Gal4 fusion for yeast two-hybrid (from UniProt P32121-1 1-409) (natural protein)”, the decrease of migration of GBM8401 cells (scratch wound assay) by maackiain (MK), dose series up to 1 μM; MK is said to disrupt the pair worked out at 67% and the decrease of migration of M059K cells (scratch wound assay) by maackiain (MK), dose series up to 1 μM; MK is said to disrupt the pair was 70%.
